Molecular target: soybean Hb (Lba) (Glycine max, UniProt P02238)
Assay: Redness (a-value) of Lba solutions after exposure to 35 fc of light for 4 days
Settings: 35 fc light, 4 days, main effect over niacin amounts
Method: FIG. 2—Effect of pH and different molar ratios of niacin to soybean Hb on the redness of Lba solutions. Measurement after exposure to 35 fc of light for 4 days
100 grams of meat analog containing a 3:1 dose of niacin would provide 5.9 mg niacin; a 6:1 dose would provide 11.8 mg niacin.

soybean Hb (Lba), sequence (P02238 whole entry): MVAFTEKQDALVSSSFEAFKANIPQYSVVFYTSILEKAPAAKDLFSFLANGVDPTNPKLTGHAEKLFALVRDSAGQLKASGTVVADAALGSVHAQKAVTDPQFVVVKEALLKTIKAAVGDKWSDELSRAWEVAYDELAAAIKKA

B1: Lba: plant Hb (soybean hemoglobin; Lba) added to meat analog (protein, UniProt P02238 2-144, looked up)
Leghemoglobin 3: VAFTEKQDALVSSSFEAFKANIPQYSVVFYTSILEKAPAAKDLFSFLANGVDPTNPKLTGHAEKLFALVRDSAGQLKASGTVVADAALGSVHAQKAVTDPQFVVVKEALLKTIKAAVGDKWSDELSRAWEVAYDELAAAIKKA
pH 6.0
  Redness (a-value) at day 4: 4.72a
pH 6.3
  Redness (a-value) at day 4: 4.62ab
pH 6.6
  Redness (a-value) at day 4: 4.45b
pH 7.0
  Redness (a-value) at day 4: 3.99c
